Test results as given in US20110034673A1 (Kyowa Kirin, published 2011).
Positions count from the first letter of the chain named.

How the values were obtained:
[1] = biological target: T1, recombinant secretory human HB-EGF manufactured by R & D System (catalogue number 259-HE/CF) (human, UniProt Q99075 63-148); assay: SPR (Biacore T-100), HB-EGF immobilized on CM5 chip, antibody in flow
T1 construct: also called recombinant human HB-EGF; secretory HB-EGF
Description: (§1) In order to analyze binding activities of a mouse antibody KM3566 and the chimeric antibody KM3966 for human HB-EGF in reaction kinetics, the binding activity measurement was carried out using Biacore. All of the following operations were carried out using Biacore T-100 (manufactured by Biacore). Human HB-EGF (manufactured by R & D) prepared into 5 μg/ml using HBS-EP Buffer (manufactured by Biacore) was immobilized onto a CM 5 sensor chip (manufactured by Biacore) to a level of 80 RU (resonance unit) by an amine coupling method. Thereafter, each antibody diluted 5-fold from 9 nmol/l was let flow on the chip at a rate of 10 μl/min, and by analyzing the sensor-gram at each concentration, the association rate constant and dissociation rate constant of each antibody for human HB-EGF were calculated.
It was confirmed based on the results that both antibodies almost the same binding activity for human HB-EGF.

mouse HB-EGF = biological target: T2, mouse HB-EGF (mouse, UniProt Q06186 63-148, limits assumed); assay: not described
T2 sequence (looked up): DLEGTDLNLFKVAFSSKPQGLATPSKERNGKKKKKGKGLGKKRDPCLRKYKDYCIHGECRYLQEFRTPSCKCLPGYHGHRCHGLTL

[2] = biological target: bovine serum albumin (BSA) (bovine, UniProt P02769 25-607); assay: binding ELISA
Chain of bovine serum albumin (BSA) (P02769 25-607 limits assumed): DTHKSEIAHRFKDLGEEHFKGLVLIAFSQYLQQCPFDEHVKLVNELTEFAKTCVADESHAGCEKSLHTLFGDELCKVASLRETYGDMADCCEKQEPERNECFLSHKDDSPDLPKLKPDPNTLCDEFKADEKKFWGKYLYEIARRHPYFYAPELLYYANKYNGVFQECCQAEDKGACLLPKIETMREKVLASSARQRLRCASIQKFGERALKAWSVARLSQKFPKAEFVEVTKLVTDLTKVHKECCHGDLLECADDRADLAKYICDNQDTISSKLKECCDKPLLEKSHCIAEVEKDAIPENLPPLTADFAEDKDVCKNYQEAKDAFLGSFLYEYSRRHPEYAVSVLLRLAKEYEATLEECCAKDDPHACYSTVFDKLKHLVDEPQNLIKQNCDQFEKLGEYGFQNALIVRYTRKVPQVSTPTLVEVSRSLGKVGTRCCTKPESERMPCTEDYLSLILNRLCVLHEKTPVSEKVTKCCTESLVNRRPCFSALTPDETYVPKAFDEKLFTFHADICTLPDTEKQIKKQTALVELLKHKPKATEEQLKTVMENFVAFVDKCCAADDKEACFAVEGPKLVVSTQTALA

[3] = biological target: T1, recombinant secretory human HB-EGF …; assay: SPR (BIACORE T100), HB-EGF immobilized, antibody in flow
Description: as §1
In order to reaction-kinetically analyze binding activity of the anti-HB-EGF humanized antibodies for human HB-EGF, it was measured in the same manner as in Example 7(2) using BIACORE T100 (manufactured by BIACORE).
As a result, human HB-EGF binding activity of the anti-HB-EGF humanized antibody HV0LV0 in which the CDRs of anti-HB-EGF chimeric antibody KM3966 were simply transplanted into human framework was reduced close to about ½ of that of the anti-HB-EGF chimeric antibody KM3966, but the binding activity of the anti-HB-EGF humanized antibody HV7LV0 in which amino acid modification was added to the H chain alone and the anti-HB-EGF humanized antibody HV7LV5 in which amino acid modification was added to the H chain and L chain was increased to almost the same level of the anti-HB-EGF chimeric antibody KM3966.

[4] = biological target: T1, recombinant secretory human HB-EGF …; assay: SPR (BIACORE T100), HB-EGF immobilized
Description: as §1
In order to reaction-kinetically analyze binding activity of the anti-HB-EGF humanized antibodies for human HB-EGF, it was measured in the same manner as in Example 7(2) using BIACORE T100 (manufactured by BIACORE). […]

T1 sequence (Q99075 63-148 limits assumed): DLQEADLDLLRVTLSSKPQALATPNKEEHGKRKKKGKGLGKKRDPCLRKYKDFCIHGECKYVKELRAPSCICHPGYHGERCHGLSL

B1: anti-HB-EGF monoclonal antibody KM3566 (antibody, V domains shown)
VH: QVQLQQSGTELARPGASVKLSCKASGYTFRTYGITWVKQRTGQGLEWIGEIFPGSGNTYYNEKFKGKASLTADKSSSTAYMQLSSLTSEDSAVYFCARESFSDGYYGYFDYWGQGTTLTVSS
VL: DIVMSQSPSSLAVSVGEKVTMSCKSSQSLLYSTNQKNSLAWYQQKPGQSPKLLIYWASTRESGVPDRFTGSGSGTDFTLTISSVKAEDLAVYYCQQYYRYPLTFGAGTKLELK
notes: also called anti-HB-EGF mouse antibody KM3566; monoclonal antibody produced by hybridoma KM3566 (FERM BP-10490)
kon [1]: 270000 M⁻¹ s⁻¹
binding result (mouse HB-EGF): no binding
binding result [2]: no binding (tested: diluted stepwise from 10 µg/ml)

B2: anti-HB-EGF chimeric antibody KM3966 (antibody, V domains shown)
VH: B1 VH
VL: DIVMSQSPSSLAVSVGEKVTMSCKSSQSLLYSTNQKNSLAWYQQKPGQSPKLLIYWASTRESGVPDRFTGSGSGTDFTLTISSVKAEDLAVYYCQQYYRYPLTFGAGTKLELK
notes: Human chimeric IgG class antibody made with the vector pKANTEX93 (WO 97/10354); also called human chimeric antibody KM3966; anti-HB-EGF monoclonal antibody KM3966
kon [1]: 240000 M⁻¹ s⁻¹
binding result (mouse HB-EGF): no binding
kon [3]: 187000 M⁻¹ s⁻¹

B3: anti-HB-EGF humanized antibody HV7LV0 (antibody, V domains shown)
VH: QVQLVQSGAEVKKPGASVKLSCKASGYTFRTYGITWVRQAPGQGLEWIGEIFPGSGNTYYNEKFKGRATLTADKSTSTAYMELSSLRSEDTAVYFCARESFSDGYYGYFDYWGQGTLLTVSS
VL: DIVMTQSPDSLAVSLGERATINCKSSQSLLYSTNQKNSLAWYQQKPGQPPKLLIYWASTRESGVPDRFSGSGSGTDFTLTISSLQAEDVAVYYCQQYYRYPLTFGQGTKLEIK
notes: Whole humanized antibody from pKANTEX93
kon [3]: 174000 M⁻¹ s⁻¹

B4: anti-HB-EGF humanized antibody HV7LV5 (antibody, V domains shown)
VH: B3 VH
VL: B3 VL with L15V, A19V, I21M, P49S, L84V
notes: as for B3
kon [3]: 170000 M⁻¹ s⁻¹

B5: anti-HB-EGF humanized antibody HV0LV0 (antibody, V domains shown)
VH: B3 VH with L20V, R30T, I48M, A68V, L70I, F95Y, L118V
VL: B3 VL
notes: Whole humanized antibody expressed from pKANTEX93
human HB-EGF binding activity relative to KM3966 [4]: ~0.5 fold of KM3966
kon [3]: 104000 M⁻¹ s⁻¹
